Data taken from the NTF2 design screens of Basanta et al. (2020).

Assay: protease stability score; higher = more stable; yeast display proteolysis, trypsin and chymotrypsin;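 also: log10 excess protease needed over predicted unfolded state with 0 meaning unfolded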
With “DDRTQKRLAEEVVRILNRGDEDQIRKMADKDVKARVGEQSVHGRETALRLLIEFNRRVDHVDIRHVHTEEGRVEVDLVAEVNGRRIRMHIVFILHNGKLHKVEMDPDELRKLEK” the protease stability score was 0.868. Sequence “DDRVADLLRKWWEAVRTGDPDRAANQVDPNAKVEYGDKQVHGREQIRTELDERKRNAKFEYKIKTYNKDEDHVKVEAEAVVVINGRPHKFTYQVHARADGDKIKHMRIELPEDVLHEMQG” has a protease stability score of 0.553. “DDRVLHEMVKVMETGDFEKFARLADPNATIEYGDKKIHGREDAEKFATKIKQRVDHVQIKTYSVKGDSARIHFELNVNGSRIDMVLVLQVKNGRLRRASFEFRDREDSKEFVKRVH” showed a protease stability score of 0.068. For “DDSAMRQIHDLLRHIETGNEKEVSKQMDPNARLQIGDQVYHGNEQARRAWKRERDEIRISIKRVRMDAKGDKVFIEMDLVREKDGTPDRLTMRITVQQHDGRVKDLVQEERR”, the protease stability score was 0.07. Work on “DDSANERAKKVMHALKTGDPDTMSELLDPNATVDVGEKQVKGMDNIVDILRKERDQIRYSIDVKRMNAKGDKVVVDATRESHHNGQPRSWHFTIFFNNTNGRVKNLKVEESG” yielded a protease stability score of 0.626. With “DDSDVNQAQTIWKHWQQGNFREIAKNADPNVKINVGDKQYHGREEYESDMQEHRNQIRVKITSMSQNKNGDKAVVDAVIVNEENGEPEEKRFVWYIKAHNGRIVSFRVEDEK” the protease stability score was 0.176. With “DDSEIRTLAKQLAHVIETGDHEHFRKMAPPDVRARIGETEYHGREQVAEALKQERRTADHVQVEDVKASGNNVTLIITQKENGRRDRFKMVFEFHNGKVKFVSQEKQ” the protease stability score was -0.189. “DDSENRNFHQFVRDWTTGNPEKLAELADENARVNVGDKTVHGRDHIRTLFEKLIRRMDIELRDVKFQKSNGEISIKARMVLNENGRPKEFVMKNNAQAEGEKIKNFVLNDDS” showed a protease stability score of 0.048. “DDSFVEKLQELLEDGNFERVADMADPNAQFRYGNRDLHGREELRKDAREFLSRVDHYQVDSFHVDNGQLNVTAQATFDGRDYKFTMTLRAKNGRVKSFKISFTSEQQNRQLDEKRE” showed a protease stability score of -0.004. Sequence “DDSKAEKFARDYVKNLHRGNQDQLARMVDPNVHFEYGDKQVHGREDYKQFNRRLRERVDHIQLKDFRIQGEKIRIEANFNVNGVNADIVFNFQIENGRVTRANMHFRSEDQEKQFHQ” has a protease stability score of 0.161. “DDSKERSNLEKFAKALETGDPKKLQQQLDPDARMQIGDKTYHGRHDMEKWLEEFNRQADHYQIDTFDQHNGTLNIQMRMNINGNTVSMTVNVVAKNGRVKHVTFDPDVWRQLES” gave a protease stability score of 0.809. Work on “DDSLEKELEDIMRTGNFEELVKNADKDARAQYGNRTYHGREDAKEAAHQFRKHVDSIQIDSIHRHNGHMEVDMQVNINGRNVRATMTIEAHNGRVKQFRVEVTDEEFHKTLHRLLE” yielded a protease stability score of 0.929. Work on “DDSLLDKVKEIFSVMRTGDPDKMKKLADKHATFEVGDKQIHGREELSEIMRRRRDEQKVSVEVKRVKKQGDTANIVFTVTNNHNGTPKVETQTMTVNMSNGKITYVNVQNDK” yielded a protease stability score of -0.007. For “DDSMVRLAHTVIDNWRQGDEKKAMELLDPNARAEIGDKTIHGREQMSDEIRKQRTEQRLDIKVKRLEDRPGHVVIDAENTNSKNGRPRTNRVQIHLTAQGDKLKRLRIQNDS”, the protease stability score was -0.05. Work on “DDSNNEIVKHMLEALHTGDPDQMSRLVDPNVRVNVGNKEVHGREQQREEVEKIKRDMRFEADLDDYHVHGEHLEFKVTYKAQINGKPYHFSADLNLTFHNGKLQSESARMDQHELEKLDG” yielded a protease stability score of 0.029. “DDSQVRSALEQAKTGNFQNLRNQLDPNAHVRVGDKTLNGKEEAVSYMQEFRDQVDRIRVDSVTTQGEKAVADLTVVINGHRVRFELVVNIRNGRAREVELRSTSEEIKKHLEHLDS” gave a protease stability score of 0.481. “DDSREIEKFMTTVERALRRGDEHKLREMFPEDAHLEVGDKTYRGRENVVEANKEWANKFDHIHIRYDKLRVDNGKFDITITYVLKHNGRQETRRAKVVAHKTNGQVKMKSVFDT” gave a protease stability score of 0.482. With “DDSRRATEFNKQYREVFRTGDPRKFEDYMDPNARAHYGDKELHGREQLRNYWKELTDNADHLDVQIHHLHVSGDDVNVDFQWNIDVNGENVQRKVVIIARLENGQVRAKQIVEK” the protease stability score was -0.143. “DDSVKRLIKNLLKAWEHGDEHRARELMDEDARVTYGDQQVTGREEVARHHATRQKEIRYSIENMDVKVQGNHVEIHVEQQQTHNGEPKQFRYTMDVEARNGKIKRFEIQERR” gave a protease stability score of 0.187. In the case of “DDSVMTAVKELLTNIQSGDPDKIQRYLDPNARMQVGDKEIHGRENIAKEIHDQNNEMEVDIEVKHVEVTGDTAIVHADVQEFHNGRPDTFHLVVRAKQDNGKMTSVVFEKRK”, the protease stability score is reported as -0.268. “DDTAAEVLKEQLDVLKQGDPDRVNQLVDPNAKRHVGDKNYRGMNSMADEDAQKMRNSRIKYTHWEQERSGDKVRVVVVYIEDHNGEPDTHRREFVFKASNGRFHQLNQDDDQ” gave a protease stability score of -0.232. With “DDTAIRIFEELQKAVENGDEREVQENLDEDAKIEYGNRTLHGREKAAKDYKRMHDQMEFTYDMKHFTVQGDKARLKVEYKATVNGKPYSDSVDVEVKIKNGKIKYIRFQFDEHKQRERDS” the protease stability score was 0.894. Work on “DDTAMRVYQEIVKALQTGDPDKVRNNFDENVEYHVGDTKVHGRDEALERIKKRMDEIRVEIQLQKVETQGDKVIVRARYVNETNGKPKQSNNNIIFKVKNGKMTHMQEREDS” yielded a protease stability score of -0.045. “DDTARQVYEDAADALRTGDEDEFRKQVDKDVRLTYGDKFIHGREEAARQLRDRQSTMRDEWDINEVQVRNGTINVDANKRNHENGQPQDVNLRVEVHAHNGKLTELRYTVQQ” showed a protease stability score of -0.177. Work on “DDTAVKIATRFWKAVETNDEQTLRDNLDPNVEVRYGDKTYHGMEDILKRLRHDADNMRHKVEIKDYRTHNGQANIDMVVRQEHNGKPERRRFKLHFRISNGRVRTMKLNDDS” yielded a protease stability score of 0.733. “DDTAVRIWEKLLSALRTGNEQEVEKNLDPNATVVIGDKRVSGREEVKRMVRRLLTTMRLNVKSVENRDQPGHADVQYTVQFNHNGRPREDRWVVIVRVKNGKIQTVVMKENP” gave a protease stability score of 1.12. With “DDTDQAEKMMEKLKDAFDTGDEDQVLKLADKDVKVDVGDKSYHGKEEYLDLFRHWLKKVDHLRLEVKHVNQNGDEISVTAKLVLDNNGETTDHTLHLVARSVNGDVVLQSMNNG” the protease stability score was 1.16. In the case of “DDTHTAEEWFHHLMNILKTNDPDRFANQFDKDARLHYGDTEVRGRENMIEFLRHMVKRIDHQSYTLLQIRVSNGRVEIKVRASMKYDGRVIDDNVEFEADLRGDKIKARQVNIG”, the protease stability score is reported as 0.564. Work on “DDTKTARELVENLNEAFEKGDEDQFVSNLPPDARIEVGDRQVHGREQLKKWFDEMVERFDHMRIEVRHVEHHNGDVRVSARMQWQHNGREQSDSVEVVFVNDNGRLKMHVLRYG” yielded a protease stability score of 1.5. Sequence “DDTLKRRISELLRAEKHNDPDKINRLFDPNAHIEYGDHRIHGREELKRQITKRMKELRFRIDRVDLEVKGNHARLRIDMTQNHNGTPRRMILDVKINASNGTIHSVDVKLDG” has a protease stability score of 0.297. With “DDTMIRRLTEWWRAFEHNNSNQMKELADPNAKFSYGDKTVTGMDDIAKQLVNEAREMRVEIRHMKVEQHGEKVRVDFEYEIRDNGRPHTNRVVLEAHQHNGKIQSVQVKDDR” the protease stability score was 0.356. Work on “DDTNVRKVKEYLKAVEHGDEETLRENVDENATVQVGDHSIHGMDNIAKKIKKDRDELRWEIKELEAEAHNGHVNVRVDARYEVNGNPIEDKFTMHFKFENGRVESVEIRVPEEFQKRVDR” yielded a protease stability score of 0.165. Work on “DDTQAREQAHRFMEAMRTGDPDTLRKLMDKDVRVTVGDHTYHGRESVAHAVITMVESIDHISVKDIKVENGTARVDFVVTVNGRRQSYDAVLEVDNGRIRYVQMHEK” yielded a protease stability score of 0.857. With “DDTQRKRIEEYWTAVKTGDEDRLTELVDEDARVRIGDKEWSGREEIVRRIHDHVRQMRVSLEFKRITVNNGKVQLHAEVEYEHNGKPDTAKVELSMELTNGKFKSNDMQIHK” the protease stability score was 0.607. Sequence “DDTRKAKELADRIVKAIKHGDEEYYERLVDKDVHADVGDRTVRGSETLVNTFQHEVEKADHIDAKVRSVSAHNGKIHISITVVVDVNGQQNSKEYTVIANTSNGRVRVEQINFK” has a protease stability score of 0.454. In the case of “DDTRVKFALHLIKLEETGDEDKLRELMDPNAKISVGDKTYHGREEIVRELRRENHEMRVRIKQFRSTASGEKVRITMDAEFEHNGKPDRFELEVVFDFTNGRVKHIELHERR”, the protease stability score is reported as 1.22. “DDTTRAKEWAEELNRIYRNGDPKELEKQMDKDVRLIIGEKHIHGRSQAMNWMRELMKKADHIELRIHDVKVQGENVTVVVVYRINVNGRDVQRRVIIVAEVHNGHLKIKEMHES” showed a protease stability score of 1.88. With “DDTVKEQAEKFFTAQNTGNPDQIANLVDPNARFTIGDKEYHGRENFKSWMETVRDKMDVDYQITDLKTDENHADVVAEYTSTHNGQPERRRMRVDMRLSNGRMKEVNIEDRS” the protease stability score was -0.503. Work on “DDTVQRMVDKFLENLKTGNEEDISKMADPNVSLNYGDKRIHGREQLMQWVERQEKEMRVEFQIRHVDVHGNKAHVTADMRIHNNGDPDNARVQFVVNAQGDKVKTITFHKTR” yielded a protease stability score of -0.14. Work on “DDTVRELVKQLRTALESNDEKKVKRLVDPNAQFQYGDKTLHGMTHAASRRVKEHQEIRLSIKKFHVNVSGDHVRVEFRYEVNVNGRPRKASATFTARFENGKMKEQRLRFDEDEYRKLKK” yielded a protease stability score of 0.063. Work on “DEDAAKDYETIVKQQESGDEDKVRQNVDPNAKWHIGEKKVHGRESLANEVHRVRRQMNERMEVKTVKDQGDKANVEMRVVQQHNGEPKDYTMQVDVHAHNGRLREVKATEQS” yielded a protease stability score of -0.388. “DEDAARKIRKLVEDWANGDPQSVADQMDENAEVHIGDQTLHGRDHVRKFVEKLSEQIRISVQSVTVRASGNHITAHVQMEVDVNGHPDTITFRIHADVDNGRIKSMEYRMDEQEQRKRTS” gave a protease stability score of 0.346. “DEDAARRMLEFLRQMEQGNEHELRHLADPNARMRVGDHTLHGMEDIAREQVERNRRLRFSNKVDRIKNDGDKVNLQIRFQIDVNGKPFTDVVSVNVHEHNGKIEFVEFRVPEEFREKVKR” gave a protease stability score of 0.1. Sequence “DEDAARSAEHLQRHNDFDEFARRADENVRLRVGDFRFQGREQVIRFMKRFTDRFDHVQFRRMDFHGNRMQAEFVAEVNGKTVKMKESFQIDNGRVHSVTQEATSEEDQEELKRLID” has a protease stability score of 0.254. With “DEDADRKFQDMVENEHRGDNDKLKKMADKNVKFTVGDKSIHGMEDYATEVRKRKERSRVRYKDVRSNDHNGRVVVKFDAQRNHNGQPKDFHVTVHFRMENGKLKEMEVRTDQ” the protease stability score was 0.052. “DEDADRVFEEFIRAKTRGDPDRLSQLVDPNVRMHVGDQELRGRDTVRRFLHEVLHHARNDIHIQSMEVDGDHVSVEFKATTEHNGQPRTDRMTASAKIDNGRIKSLQEHSKK” showed a protease stability score of -0.297. “DEDAEKHWRTFLRNQKTGDEQKMRDQVDPNARASIGDQEVEGREKIVRELVEEFRHMHVQINWKSLTAHNGKVHAHADAQVDHNGRPQTYKITASAQFSNGKIKEFKMQRRP” gave a protease stability score of -0.013. “DEDAEREIDRLVRDNNEEDIERLMPEDAKMQVGDKTVTGRENIATQIKRLNQKADHRRIDKITLQGERVVINFTIVVNGTKFKAKIVLHAHNGKIKVVVLRARDEDLDREMSKVMN” showed a protease stability score of 0.028. Sequence “DEDAERHVTEMIHAYKHNNPEKVQTYMDKHVKIKVGDKTVKGREERAKELRKQKDQMRVDYDVHSMNVKGDKITARLRVDITVNGQPHTFEYHLIVKWTNGKIQELSVEFPEEDQKKQSR” has a protease stability score of -0.086. Sequence “DEDAERLINQLLTAERRGNPDQVMQQVDKNATQTVGDKHIHGREDISREVEKRKRESRVDRKVESIDIRGNQARIEVHFEEDRNGKPVTSAQTMDITFHNGVVHERKVQDDS” has a protease stability score of -0.743.
